Non-standard residues stand in square brackets, D forms with d. No end group written: not given here. Cit = NC(=O)NCCC[C@H](N)C(=O)O
Legend:
[1] = molecular target: T1, huPAD4 deiminated human recombinant histone H2A (human); test: ELISA, 0.016 ug/well
T1 construct: also called H2A/p4; huPAD4 deiminated histone 2A
Method: (§1) CFC-1 and CFC-0 were coated at the same concentration and served as positive and negative controls, respectively, for specific anti-citrulline reactivity and as coating controls. Non-coated wells were used to test for aspecific binding of the antibodies. […] Detection of bound anti-citrulline antibodies was performed by incubating the wells with rabbit-anti-human-HRP (1:2000) for one hour at RT followed by incubation with TMB substrate. The resulting OD (y-axis) is a measure for antibody binding. H1=recombinant histone 1; H1/p2=huPAD2 recombinant histone 1; H1/p4=huPAD4 recombinant histone 1 and so forth (x-axis).

[2] = molecular target: T2, huPAD2 deiminated human recombinant histone H2B (human); test: ELISA, 0.016 ug/well
T2 construct: also called H2B/p2
Method: as §1

CFC-1 [3] = molecular target: T3, CFC-1; test: ELISA, 0.016 ug/well
T3 construct: Positive control for anti-citrulline reactivity; also called cfc1 XG
Method: as §1

[4] = molecular target: human recombinant histone H4 (human, UniProt P62805 2-103); test: ELISA, 0.016 ug/well
Method: as §1

[5] = molecular target: T4, human recombinant histone H2A (human); test: ELISA, 0.016 ug/well
T4 construct: Non-deiminated
Method: as §1

[6] = molecular target: T5, huPAD4 deiminated human recombinant histone H2B (human); test: ELISA, 0.016 ug/well
T5 construct: also called H2B/p4
Method: as §1

[7] = molecular target: T6, huPAD4 deiminated human recombinant histone H3 (human); test: ELISA, 0.016 ug/well
T6 construct: also called H3/p4
Method: as §1

[8] = molecular target: T7, human recombinant histone H2B (human); test: ELISA, 0.016 ug/well
T7 construct: Non-deiminated
Method: as §1

[9] = molecular target: T8, huPAD2 deiminated human recombinant histone H3 (human); test: ELISA, 0.016 ug/well
T8 construct: also called H3/p2
Method: as §1

[10] = molecular target: T9, huPAD2 deiminated human recombinant histone H2A (human); test: ELISA, 0.016 ug/well
T9 construct: also called H2A/p2
Method: as §1

huFibα XG [11] = molecular target: T10, huFibα XG (human, X at position 8 is citrulline; biotin label); test: peptide ELISA, 2 ug/well
T10 peptide: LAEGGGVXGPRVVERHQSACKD
Method: (§2) Biotin and citrulline-containing peptides derived from fibrinogen and vimentin were immobilized on NEUTRAVIDIN®-coated 96-well ELISA plates (0.3 μg/well). CFC-1 and CFC-0 were coated at the same concentration and served as positive and negative controls respectively for specific anti-citrulline reactivity and as coating controls. Non-coated wells were used to test for aspecific binding of the antibodies. […] Detection of bound anti-citrulline antibodies was performed by incubating the wells with rabbit-anti-human-HRP (1:2000) for one hour at RT followed by incubation with TMB substrate. The resulting OD (y-axis) is a measure for antibody binding.
(§3) Biotin-labeled and citrulline-containing fibrinogen and vimentin peptides (Table 5) were also tested for reactivity with the therapeutic antibodies. Peptides were coated on 96-well NEUTRAVIDIN®-ELISA plates.

CFC-1 [12] = molecular target: T3, CFC-1; test: peptide ELISA, 2 ug/well
Method: as §2, §3

msFibβ XG [13] = molecular target: T11, msFibβ XG (mouse, also: biotin label); test: peptide ELISA, 2 ug/well
T11 peptide: EPTDSLDA[Cit]GHRPVDRR
Method: as §2, §3

msFibα XH [14] = molecular target: T12, msFibα XH (mouse, X at position 15 is citrulline; biotin label); test: peptide ELISA, 2 ug/well
T12 peptide: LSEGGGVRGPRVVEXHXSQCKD
Method: as §2, §3

msFibα XG [15] = molecular target: T13, msFibα XG (mouse, X at position 8 is citrulline; biotin label); test: peptide ELISA, 2 ug/well
T13 peptide: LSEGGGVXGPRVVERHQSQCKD
Method: as §2, §3

huFibα XH [16] = molecular target: T14, huFibα XH (human, X at position 15 is citrulline; biotin label); test: peptide ELISA, 2 ug/well
T14 peptide: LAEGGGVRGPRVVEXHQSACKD
Method: as §2, §3

msVim XS/XL [17] = molecular target: T15, msVim XS/XL (mouse, also: biotin label); test: peptide ELISA, 2 ug/well
T15 construct: also called mouse vimentin peptide
T15 peptide: YVT[Cit]SSAV[Cit]L[Cit]SSVP
Method: as §2, §3

huFibα XG [18] = molecular target: T10, huFibα XG; test: peptide ELISA, 0.016 ug/well
Method: as §2, §3

CFC-1 [19] = molecular target: T3, CFC-1; test: peptide ELISA, 0.016 ug/well
Method: as §2, §3

msFibβ XG [20] = molecular target: T11, msFibβ XG; test: peptide ELISA, 0.016 ug/well
Method: as §2, §3

msFibα XH [21] = molecular target: T12, msFibα XH; test: peptide ELISA, 0.016 ug/well
Method: as §2, §3

msFibα XG [22] = molecular target: T13, msFibα XG; test: peptide ELISA, 0.016 ug/well
Method: as §2, §3

huFibα XH [23] = molecular target: T14, huFibα XH; test: peptide ELISA, 0.016 ug/well
Method: as §2, §3

msVim XS/XL [24] = molecular target: T15, msVim XS/XL; test: peptide ELISA, 0.016 ug/well
Method: as §2, §3

CFC-1 [25] = molecular target: T3, CFC-1; test: peptide ELISA, 0.0023 ug/well
Method: as §2, §3

msFibα XH [26] = molecular target: T12, msFibα XH; test: peptide ELISA, 0.0023 ug/well
Method: as §2, §3

huFibα XH [27] = molecular target: T14, huFibα XH; test: peptide ELISA, 0.0023 ug/well
Method: as §2, §3

B1: RhmAb2.102 (antibody, human IgG1, lambda)
heavy: not shown
light: QSVLTQPPSMSAAPGQKVTISCSGSSSNIGNNYVSWYQQVPGTAPKLLIYDDNKRPSGIPGRFSGSKSATSATLGITGLQAGDEADYYCGSWDDNLSVVLFGGGTKLTVLGQPKAAPSVTLFPPSSEELQANKATLVCLISDFYPGAVTVAWKADSSPVKAGVETTTPSKQSNNKYAASSYLSLTPEQWKSHRSYSCQVTHEGSTVEKTVAPTECS
notes: Human IgG1 lambda; also called Rhm2.102
Which OD [1] does the source give for B1 here?
The OD was 0.426 OD.

What about the OD [2] of the same binder?
Its OD is 0.052 OD.

What about the OD (CFC-1 [3]) of the same binder?
The OD was 0.702 OD.

And the OD [4]?
Its OD is 0.061 OD.

What about the OD [5] of the same binder?
Its OD is 0.057 OD.

And the OD [6]?
The OD was 0.052 OD.

What about the OD [7] of the same binder?
The OD was 0.076 OD.

What about the OD [8] of the same binder?
The OD was 0.065 OD.

And the OD [9]?
Its OD is 0.155 OD.

What about the OD [10] of the same binder?
Its OD is 0.628 OD.

What about the OD (huFibα XG [11]) of the same binder?
The OD was 1.51 OD.

What about the OD (CFC-1 [12]) of the same binder?
The OD was 3.97 OD.

What about the OD (msFibβ XG [13]) of the same binder?
Its OD is 3.15 OD.

And the OD (msFibα XH [14])?
Its OD is 0.091 OD.

And the OD (msFibα XG [15])?
Its OD is 1.9 OD.

And the OD (huFibα XH [16])?
Its OD is 0.116 OD.

And the OD (msVim XS/XL [17])?
The OD was 2.77 OD.

What about the OD (huFibα XG [18]) of the same binder?
The OD was 0.103 OD.

And the OD (CFC-1 [19])?
The OD was 1.22 OD.

And the OD (msFibβ XG [20])?
Its OD is 0.174 OD.

And the OD (msFibα XH [21])?
The OD was 0.081 OD.

And the OD (msFibα XG [22])?
The OD was 0.107 OD.

And the OD (huFibα XH [23])?
The OD was 0.08 OD.

What about the OD (msVim XS/XL [24]) of the same binder?
The OD was 0.201 OD.

What about the OD (CFC-1 [25]) of the same binder?
The OD was 0.506 OD.

And the OD (msFibα XH [26])?
The OD was 0.085 OD.

And the OD (huFibα XH [27])?
Its OD is 0.123 OD.

Reference: patent US20170298146A1 (MODIQUEST B V, published 2017)
